In the nanobody polyreactivity screen of Harvey et al. (2022):

Assay: yeast display, Sf9 membrane polyspecificity reagent, FACS + sequencing; frameworks hold sequencing errors
Method in brief: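 A nanobody's polyreactivity label depends on the gate it was sorted from. Yeast display cells were stained with 10% biotinylated, detergent-solubilized Sf9 membrane reagent for 1 hour at 4 °C, enriched on streptavidin microbeads and sorted by FACS. The low and high (top ~1%) gates were set on anti-HA fluorescence for expression and streptavidin fluorescence for reagent binding.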

QVQLVESGAGLVQAGGSLRLCCAASGFIFYLNTMGWYRQAPGKERELVAGITWRGGTTYYADSVKGRFTISRDNAKNSVYLQMNSLKPEDTAVYYCAARRYSRPYSYGFYYWGQGTLVTVSS
polyreactivity (PSR sort gate): high polyreactivity

QVQLVESGGGLVQAGGSLRLSCAASGFTFYVNAMGWYRQAPGKERELVAAISSRGGSTYYADSVKGRFTISRDNAKNTVYLQMNSLKPEDTAVYYCATAKSYGEDSWGQGTQVTVSS
polyreactivity (PSR sort gate): high polyreactivity

QVQLQESGGGLVQAGGSLCMSCAASGSISDYIFMCWYRQAPGKVREFVAGIGIGGKTNYADSVKGRFTIRRDNEKYTVYLQMNSLKPEDTALYYCAANATYTDYYAYCGQGTQVTVSS
polyreactivity (PSR sort gate): low polyreactivity

QVQLVESGGGLVQAGGSLRLSCAASGSTFIWNAMGWYRQAPRKERELVATITYSGGSTYYADSVKGRFTISRDNAKNTVYLQMNSLKPEDTAVYYCATDATIPKCYTYPGEMDYWGQGTQVTVSS
polyreactivity (PSR sort gate): low polyreactivity

QVQLVQSGGGLVQAGGTLRLTCAASGSTYAVYAMGWYRQAPGKERELVATIRGRGGSTYYADSVKGRFTISRDYAKNTVYLQMNSLKPEDTAVYYCAADSYPSLGKYDSWGQGTQVTVSS
polyreactivity (PSR sort gate): high polyreactivity

QVQLVESGGGVVQAGGSLRLSCAASGRTIYFYAMGWYRQAPGKERELVAAITGSGGRTYYADSVKGRFTISRDHAKNTVYLQMNSLKTEDTAVYYCAAVPPPLARLYVAAKRFDSWGQGTQVTVSS
polyreactivity (PSR sort gate): low polyreactivity

QVQLVESGGGLVQAGGSLRLSCDASGLTFRLYTMGWYRQAPGKETELGAAITYSGDSTYYADSVKGRFTISRDNAKNTDYLQMNSLKPEDTAVYYCAARKYYARYYWGQGTQVTVSW
polyreactivity (PSR sort gate): high polyreactivity

QVQLVESGGGLVQAGGSLRISCAASGFIFRPNAMGWYRQAPGKERELVAAITRDGDRTYYADSVKGRFTISRDNAKNTVYLQMNSLKPEDTAVYYCAADVIQWWTRYYTWEYDYWGQGTQVTVSS
polyreactivity (PSR sort gate): low polyreactivity

QVQLVESGGGLVQAGGSLRLSCAASGSIIGTNVMGWYRQAPGKERELVASISYRDGTTYYADSVKGRFTISRDNAKNTVYLQMNSLKPEDTAVYYCAVANYYSYYWGQGTQVTVSS
polyreactivity (PSR sort gate): low polyreactivity

QVQLVESGGGLVQAGGSLRLSCAPSGGTFALYAMGWYRQAPGKERELVASISFNGGSTYYADSVKGRFTISRDNAKNTVYLQMNSLKPEDTAVYYCNTGYQWGVYESQTAVEDYWGQGTQVTVSS
polyreactivity (PSR sort gate): low polyreactivity

QVQLVESGGGLVQAGGSLRISCAASGRTFDINAMGWYSPAPGKERELVAAISSRGGTTFYADSVKGRFTISRDNAKNTVYLKMNSLKPEDSAVYYCAAVTSYYYTEEDYWGQGTQVTVSS
polyreactivity (PSR sort gate): low polyreactivity

QVQLEESGGGLVQAGGSLRLSCAASGRIFYWYAMGWYRQAPGKERELVATISSAGTTYYADSVKGRFTISRDNAKNTVYLQMNSLKPEDTAVYYCAVPRVGLHGIGSDYWGQGTQVTVSS
polyreactivity (PSR sort gate): high polyreactivity

QVQLVESGGGLVQAGVSLRLSCASSGIIFPDYAMGWYRQAPGKERELVAAITRSGGRTFYADSVKGRFTISRDTAKNSVYLQMKSLKPEDTAVYYCAVSYSYLYYYWGQGTQVTVSS
polyreactivity (PSR sort gate): high polyreactivity

QVQLVESGGGLVQAGGSLSLSCAATGRIFDGNVMGWYRQAPGKERELVAAISSGDSTNYADSVKGRFTISRDNAKNTVYLQRNSLKTEDTAVYDCNRTPNSGGYDRFYGGDFYYWGQGTQVTVSS
polyreactivity (PSR sort gate): low polyreactivity

QVQLVESGGGLVQAGGSLRLSCAASGITFGINAMGWYRQAPGKERELVAAITSGGSTYYADSVKGRFTISRDNAKNTVYLQMNSLKPEDTAVYDCAADYQYFVYCEYDYWGQGTQVTVSS
polyreactivity (PSR sort gate): low polyreactivity

QVQLVESGVCLVQAGGSLRLSCAASGFTFKWYAMGWYRQAPGKERELVATITIGGRTNYADSVKGRFTISRDNAKNTVYLQMNSLKPEETAVYYCATYFVGFRLSDYDYWGQGTQVTVSS
polyreactivity (PSR sort gate): low polyreactivity

QVQLVESGGGLVQAGGSLRLSCAASGITFGDYAMGWYRQAPGKERELVAAISKRGGSTYYAESVKGRFTISRDNAKNTVYLQMNSRNPEDTAVYYCAADYYSKAYYYWGQGTQVTVSS
polyreactivity (PSR sort gate): high polyreactivity

QVQLVESGGGLVQAGGSLRLSCAASGITFDVYAMGWYRQAPGKERELVAAISSVGGTYYADSVKGRFTISRDNAKNTVYFQMNSLKPEDTAVYYCNTDGYVGSIRSGLYIYEYWGQGTQVTVSS
polyreactivity (PSR sort gate): low polyreactivity

QVQLVESGGGLVQAGGSLRLSCSASGRIFKRYAMGWYRQSPGKERELVAAFTRGGSTNYADSVKGRFTISRDNAKNTVYLQMNSLKPEDTAVYYCNRYGGTRYWGRGTQVTVSS
polyreactivity (PSR sort gate): high polyreactivity

QFQLVESGGGLVQAGGSLRLSCAASGFTISWNTMGWYRQAPRKERELVATISGSGGRTYYADSVKGRFTISRDNAKNTVYFQMNSMKPEDTAVYYCAARYVLGGQGTSRRVRGGYWGQGTQLTVSS
polyreactivity (PSR sort gate): high polyreactivity

QVQLVESGGGLVQAGGSLRLSSPASGFNFKSNCMGWYRQAPGKERELIADIRRSVGSTYYADYVKGRFTISRDNAKNTVYLQMNSLKPEDTSVYYCNAKYIKGRDWGQCTQVTVSS
polyreactivity (PSR sort gate): high polyreactivity

QVQLVESGGGLVQAGGSLRLSCAASGSIFEGYAMGWYRQAPGKERELVAAISRSGGSTYYADSVKGRFPISRDNAKNTVYLQMNSLKPEDTAVYYCAARKAIDYQGRHDHWGQGTQVTVSS
polyreactivity (PSR sort gate): low polyreactivity

QVQLVESGGGLVQAGGSLRLSCAASGFTFYRNTMGWYRQAPGKERELVATITFSGTRTYYADSVKGRFTISRDNAKNTVYLQMNSLKPEDTAVYYCAADRPRRTKWGGGGYYWGQGTQVTVSS
polyreactivity (PSR sort gate): high polyreactivity

QVQLVESGGGLVQAGGSLRLRCAPSGSIFSAYAMGWYRQAPGKVREVVAGISKSGARTYYADSVKGRFTLSRDNAKNTVYLQMNRLKPEDTAVYYCAAVDYYLYYYWGQGTQVTVSS
polyreactivity (PSR sort gate): high polyreactivity

QVQLVESGGGLVQAGGSLRLSCAASGYTFWDNAMGWYRQAPGKERELVAAITIRSGRTYYADSVKGRFTISRDNAKNTVYLQMNSLKPEDTAVYYCNAQIYTYRTGRGYSRMDYWGKGTQVTVSS
polyreactivity (PSR sort gate): high polyreactivity

QVQLVESVGGLVQAGCILRLSCAPSGRIFGVNAMGWYRQAPGKVRELVAAIDWSDGSTYYADSVKGRFTISRDNAKNTVYLQMNSLKPEDTAVYYCAALPSYLAAQYGDDYWGQGTQVTVSS
polyreactivity (PSR sort gate): low polyreactivity

QVQLVESRAGLVQAGGSLRLSCAASGSTFGYYTMGWYRQAPGKERELVAAITWSGGSSYYADSVKGRFTISRDNAKKTVYLEMNSLKAEDTAVYFGAADDYWTPFGYWGQGTQVTVSA
polyreactivity (PSR sort gate): low polyreactivity

QVQHVESGGGLVQAGGSLRLSCAASGSILPFNAMGWYRQAPGKVRELVAAIDGSGGDTYYADSVKGRFTISRDNAKNTVYLQMNSLKAEDTAVYYCAAEYYYTSQLAKYHYGYEYWGQGTQETVSS
polyreactivity (PSR sort gate): high polyreactivity

QVQLVESGGGLVQAGGSLRLSCAASGFIFSRNVMGWYRQAPGKERELVAAISRSGGSTYYADSVKGRFTISRDNAKNTVYLQMNSLKTEYTAVYYCAASRINNVYLLKGDYWGQGTQVTVSS
polyreactivity (PSR sort gate): high polyreactivity

QVQLVESGGGLVQAGGSLRLSCAASGNILRGYAMGWYRQAPGKERELVAAINRGGGSTYYADSVKGRFTISRDNAKNTVYLQMNSLKPEDTAVYYCAARYPHRGYTFDYWGQGTQVTVSS
polyreactivity (PSR sort gate): low polyreactivity

QVQLVESGGGLVQAGGSLRLSCAASGSTFRIYAMGWYRQAPGKERELVAAIRRRGASTYYADSVKGRFTISRDNAKNTVYLQMISLKPEDTAVYYCAASYFWDRVPGRGIHDYWGQGTQVTVSS
polyreactivity (PSR sort gate): high polyreactivity

QLQLVESGGGLVQAGASLRLSCAASGFIFKYNAMGWYRQAPCKERELVSAISRGTSTYYADSVKGRFTISRDNAKNTVYLQLNSLKPEDTAVYYCEATGRRPGQKYMGYDYWGQGTQVTVSS
polyreactivity (PSR sort gate): high polyreactivity

QVQLVESGGGLVQAGGSLRISCAASGRTFFHYAMGWYRQAPGKERELVAGITSGGRTKYADSVKGRFTISRDNAKKTVYLQKNSMKPEDTAVYVCAASYIVWLTRGSPRKLFDYWGQGSQVTVSS
polyreactivity (PSR sort gate): high polyreactivity

QVQLVESGGGLVQAGGSLRLSCAASGRIFYSNAMGWYRQAPGKERELVAVIRRTGSTYYAASVKGRFTISRDNAKNTVYLQMISQIPEDTAVYYCATSIPYGRGGNRYVYWGQGTQVTVSS
polyreactivity (PSR sort gate): high polyreactivity

QDQLVESGGGLVQAGGSLRLICAASGSNLNNYAMGWSRQAPGKERELVAAISSSGGTNYADSVKGRFTISRDNAKNTVYLQMNSLKPEDTAVYYCNADVLEGGYDYWGQGPQVTVSS
polyreactivity (PSR sort gate): low polyreactivity

QVQLVESGGGLVQAGGSLRLSCAASGSTFTTNAMGWYRQAPGKERELVAAISSGGRTYYADSVKGRFTISRDNAKNTVYLQMNRLKPEDTAVYYCAAEIYYSIYQGSRFYYRGQGTQVTVSS
polyreactivity (PSR sort gate): high polyreactivity

QVQLVESGGGLVQAGGSLRLSCAASGSIFGYYSMGWYRQATGKERELVATITWGGGSTYADSVKGRFTISRDNAKNTVYLQMNSLKPEDTAVYYCNAGYRYTSAQVTWEYDYWGQGTQVTVSS
polyreactivity (PSR sort gate): low polyreactivity

QGQLVESGGGLVQEGGSLRLSCAASGSTFKRYVMGWYRQAPGKERELVAAITWSGTRTYYADSVKGRFTISRDNAKNTVYLQMNSLKPVDTAVYYCAARLYGGYDWGQGTQVTVSS
polyreactivity (PSR sort gate): high polyreactivity

QVQLVESGGGLVQAGGSLRLSCAASGSIIRDNAMGWYRQAPGKERELVAAISVSGGRTYYADSVKGRFTISRDNAKNTVYLQMNSLKPEDTAVYYCAALRRPSYPGRFAELDYWGQGTQVTVSS
polyreactivity (PSR sort gate): high polyreactivity

QVQLVESGGGLVQAGGSLRLSCAASGRIFVVYTMRWYRQAPGNERELVASIRGSGDSTNYADSVKGRFTISRDNAKNTVYLQMNSLKPEDTAVYYCAADLPWSRRYSYRYGYWGQGTQVTVSS
polyreactivity (PSR sort gate): low polyreactivity

QVQLVESGGGLVQAGGSLRLSCAASGRIFAFSAMGWSRQAPGKERELVAAISSGGSTYYADSVKGRFTISRDNAKNTVYLQMNSLKPEDTAVYYCAASGLYYYRYRYYYWGQGTQVTVSS
polyreactivity (PSR sort gate): high polyreactivity

QVQLVESGGGLVQAGVSLRLSCSASGLTFRPNAIGWYRQAPGKERELVAAITWSGGRTYYADSVKGRFTISRDNATNTVYFQMNSLKPEDTAVYYCAAVPLRNRWPNSWPALDYWGQVTQVTVSS
polyreactivity (PSR sort gate): high polyreactivity

QVQLVESGGGLVQAGGSLRLSCAASGRTFYRNAMGWYRQAPGKERELVAAISRGDSTYYADSVKGRFTNSRDNAKNTVYLQMNILIPEDTAVYYCAKRARRIGDVNMGSWGQGTQVTVSS
polyreactivity (PSR sort gate): low polyreactivity
